B1: mGluR6 (metabotropic glutamate receptor 6): N445Q (protein)
parent chain: MGRLRVLLLWLAWWLSQAGIAHGAGSVRLAGGLTLGGLFPVHARGAAGRACGTLKKEQGVHRLEAMLYALDRINADPELLPGVRLGARLLDTCSRDTYALEQALSFVQALIRGRGDGEEASVRCPGGVPPLRAAPPERVVAVVGASASSVSIMVANVLRLFAIPQISYASTAPELSDSTRYDFFSRVVPPDSYQAQAMVDIVRALGWNYVSTLASEGNYGESGVEAFVQISREAGGVCIAQSIKIPREPKPGEFHKVIRRLMETPNARGIIIFANEDDIRRVLEATRQANLTGHFLWVGSDSWGSKISPILNLEEEAVGAITILPKRASIDGFDQYFMTRSLENNRRNIWFAEFWEENFNCKLTSSGGQSDDSTRKCTGEERIGQDSTYEQEGKVQFVIDAVYAIAHALHSMHQALCPGHTGLCPAMEPTDGRTLLHYIRAVRFNGSAGTPVMFNENGDAPGRYDIFQYQATNGSASSGGYQAVGQWAEALRLDMEALQWSGDPHEVPPSQCSLPCGPGERKKMVKGVPCCWHCEACDGYRFQVDEFTCEACPGHMRPTPNHTGCRPTPVVRLTWSSPWAALPLLLAVLGIMATTTIIATFMRHNDTPIVRASGRELSYVLLTGIFLIYAITFLMVAEPCAAVCASRRLLLGLGTTLSYSALLTKTNRIYRIFEQGKRSVTPPPFISPTSQLVITFGLTSLQVVGVIAWLGAQPPHSVIDYEEQRTVDPEQARGVLKCDMSDLSLIGCLGYSLLLMVTCTVYAIKARGVPETFNEAKPIGFTMYTTCIIWLAFVPIFFGTAQSAEKIYIQTTTLTVSLSLSASVSLGMLYVPKTYVILFHPEQNVQKRKRSLKKTSTMAAPPKSENSEDAK
B2: mGluR6 (metabotropic glutamate receptor 6): 4Q (protein)
parent chain: MGRLRVLLLWLAWWLSQAGIAHGAGSVRLAGGLTLGGLFPVHARGAAGRACGTLKKEQGVHRLEAMLYALDRINADPELLPGVRLGARLLDTCSRDTYALEQALSFVQALIRGRGDGEEASVRCPGGVPPLRAAPPERVVAVVGASASSVSIMVANVLRLFAIPQISYASTAPELSDSTRYDFFSRVVPPDSYQAQAMVDIVRALGWNYVSTLASEGNYGESGVEAFVQISREAGGVCIAQSIKIPREPKPGEFHKVIRRLMETPNARGIIIFANEDDIRRVLEATRQANLTGHFLWVGSDSWGSKISPILNLEEEAVGAITILPKRASIDGFDQYFMTRSLENNRRNIWFAEFWEENFNCKLTSSGGQSDDSTRKCTGEERIGQDSTYEQEGKVQFVIDAVYAIAHALHSMHQALCPGHTGLCPAMEPTDGRTLLHYIRAVRFNGSAGTPVMFNENGDAPGRYDIFQYQATNGSASSGGYQAVGQWAEALRLDMEALQWSGDPHEVPPSQCSLPCGPGERKKMVKGVPCCWHCEACDGYRFQVDEFTCEACPGHMRPTPNHTGCRPTPVVRLTWSSPWAALPLLLAVLGIMATTTIIATFMRHNDTPIVRASGRELSYVLLTGIFLIYAITFLMVAEPCAAVCASRRLLLGLGTTLSYSALLTKTNRIYRIFEQGKRSVTPPPFISPTSQLVITFGLTSLQVVGVIAWLGAQPPHSVIDYEEQRTVDPEQARGVLKCDMSDLSLIGCLGYSLLLMVTCTVYAIKARGVPETFNEAKPIGFTMYTTCIIWLAFVPIFFGTAQSAEKIYIQTTTLTVSLSLSASVSLGMLYVPKTYVILFHPEQNVQKRKRSLKKTSTMAAPPKSENSEDAK
B3: mGluR6 (metabotropic glutamate receptor 6): N561Q (protein)
parent chain: MGRLRVLLLWLAWWLSQAGIAHGAGSVRLAGGLTLGGLFPVHARGAAGRACGTLKKEQGVHRLEAMLYALDRINADPELLPGVRLGARLLDTCSRDTYALEQALSFVQALIRGRGDGEEASVRCPGGVPPLRAAPPERVVAVVGASASSVSIMVANVLRLFAIPQISYASTAPELSDSTRYDFFSRVVPPDSYQAQAMVDIVRALGWNYVSTLASEGNYGESGVEAFVQISREAGGVCIAQSIKIPREPKPGEFHKVIRRLMETPNARGIIIFANEDDIRRVLEATRQANLTGHFLWVGSDSWGSKISPILNLEEEAVGAITILPKRASIDGFDQYFMTRSLENNRRNIWFAEFWEENFNCKLTSSGGQSDDSTRKCTGEERIGQDSTYEQEGKVQFVIDAVYAIAHALHSMHQALCPGHTGLCPAMEPTDGRTLLHYIRAVRFNGSAGTPVMFNENGDAPGRYDIFQYQATNGSASSGGYQAVGQWAEALRLDMEALQWSGDPHEVPPSQCSLPCGPGERKKMVKGVPCCWHCEACDGYRFQVDEFTCEACPGHMRPTPNHTGCRPTPVVRLTWSSPWAALPLLLAVLGIMATTTIIATFMRHNDTPIVRASGRELSYVLLTGIFLIYAITFLMVAEPCAAVCASRRLLLGLGTTLSYSALLTKTNRIYRIFEQGKRSVTPPPFISPTSQLVITFGLTSLQVVGVIAWLGAQPPHSVIDYEEQRTVDPEQARGVLKCDMSDLSLIGCLGYSLLLMVTCTVYAIKARGVPETFNEAKPIGFTMYTTCIIWLAFVPIFFGTAQSAEKIYIQTTTLTVSLSLSASVSLGMLYVPKTYVILFHPEQNVQKRKRSLKKTSTMAAPPKSENSEDAK

Assays:
[1] = Non-permeabilised mAb-1438 immunolabelling, HEK, untagged; conditions: glycan lost; control: wild type
[2] = Non-permeabilised mAb-1438 immunolabelling, HEK, mGluR6-EGFP; conditions: glycan lost; control: wild type mGluR6-EGFP
[3] = EGFP in TRPM1-positive OPL puncta, electroporated mouse retina; conditions: glycan lost; control: wild type mGluR6-EGFP
[4] = Permeabilised mAb-1438 immunolabelling, HEK, untagged; conditions: glycan lost; control: wild type
[5] = Total EGFP fluorescence, HEK; conditions: glycan lost; control: wild type mGluR6-EGFP

| Protein | localisation_or_trafficking [1] | localisation_or_trafficking [2] | localisation_or_trafficking [3] | expression_or_secretion [4] | expression_or_secretion [5] |
| --- | --- | --- | --- | --- | --- |
| B1 | decreases | decreases | no change |  |  |
| B2 | abolishes |  | abolishes | decreases | decreases |
| B3 | decreases | decreases | no change |  | decreases |

Reference: publication PMC10973816
